Test results reported in patent publication US20210300999A1 (VANDERBILT UNIVERSITY, published 2021).

What was measured:
[1] = target: SARS-CoV-2 Spike trimer (Table A) (SARS-CoV-2, UniProt P0DTC2 14-1208); assay: ELISA, purified IgG
[2] = target: T1, SARS-CoV-2 prefusion-stabilized trimeric spike ectodomain (S2Pecto) (SARS-CoV-2, UniProt P0DTC2 14-1213; P10104 458-484); assay: ELISA on coated antigen
[3] = target: T1, SARS-CoV-2 prefusion-stabilized …; assay: hACE2 blocking ELISA on coated S2Pecto; competitor hACE2

B1: COV2-2514 (antibody, V domains shown)
VH: EVQLVESGGGVVRPGGSLRLSCAASGFIFDDYDMTWVRQAPGKGLEWVSGINWNGGSTGYADSVKGRFTISRDNAKNSLYLQMNSLRAEDTALYHCAVIMSPIPRYSGYDWAGDAFDIWGQGTMVTVSS
VL: SSELTQDPAVSVALGQTVRITCQGDSLRSYYASWYQQKPGQVPILVIYDKNNRPSGIPDRFSGSSSGNTASLTITGAQAEDEADYYCNSRDSSGNAVVFGGGTKLTVL
For B1, the “ELISA OD 450 nm” value [1] was 3.56 OD 450 nm.

B2: COV2-2094 (antibody, V domains shown)
VH: B1 VH
VL: B1 VL
For B2, the “ELISA OD 450 nm” value [1] was 4.3 OD 450 nm, the EC50 [2] was 1.8 ng/mL and the IC50 [3] was 0.053 µg/mL.

B3: COV2-3025 (antibody, V domains shown)
VH: EVQLVQSGPEVKKPGTSVKVSCKASGFTFMSSAVQWVRQARGQRLEWIGWIVIGSGNTNYAQKFQERVTITRDMSTSTAYMELSSLRSEDTAVYYCAAPYCSSISCNDGFDIWGQGTMVTVSS
VL: EIVLTQSPGTLSLSPGERVTLSCRASQSVSSSYLAWYQQKPGQAPRLLIYGASSRATGIPDRFSGSGSGTDFTLTISRLEPEDFAVYYCQHYGSSRGWTFGQGTKVEIK
For B3, the “ELISA OD 450 nm” value [1] was 3.7 OD 450 nm, the EC50 [2] was 1.1 ng/mL and the IC50 [3] was 0.041 µg/mL.
